For the assay, the target named is T1, Myc-TRAP1 (human, UniProt Q12931 60-704).
T1 chain: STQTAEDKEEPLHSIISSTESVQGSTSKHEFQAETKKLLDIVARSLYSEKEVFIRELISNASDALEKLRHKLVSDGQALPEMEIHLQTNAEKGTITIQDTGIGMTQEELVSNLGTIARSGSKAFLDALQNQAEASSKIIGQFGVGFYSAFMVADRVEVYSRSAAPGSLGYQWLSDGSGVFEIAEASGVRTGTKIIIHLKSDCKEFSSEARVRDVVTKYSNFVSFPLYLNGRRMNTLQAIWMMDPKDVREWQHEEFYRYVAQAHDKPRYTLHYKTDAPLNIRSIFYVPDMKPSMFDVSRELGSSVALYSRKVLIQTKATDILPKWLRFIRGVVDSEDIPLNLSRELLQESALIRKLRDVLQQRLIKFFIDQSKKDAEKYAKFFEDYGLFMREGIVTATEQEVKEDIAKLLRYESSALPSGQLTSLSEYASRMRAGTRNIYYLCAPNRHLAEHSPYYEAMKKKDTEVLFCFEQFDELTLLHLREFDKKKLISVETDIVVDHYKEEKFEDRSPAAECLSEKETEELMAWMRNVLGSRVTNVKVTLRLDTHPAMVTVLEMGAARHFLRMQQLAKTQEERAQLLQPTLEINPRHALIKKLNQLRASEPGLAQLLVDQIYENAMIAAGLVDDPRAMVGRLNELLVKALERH
Nature of the assay: SPR; printed as "Ka 69.8 µM". For orientation: Surface plasmon resonance follows binding to a sensor surface in real time, without labels.

B1: recombinant mature human OSCP (natural protein)
chain: FAKLVRPPVQVYGIEGRYATALYSAASKQNKLEQVEKELLRVAQILKEPKVAASVLNPYVKRSIKVKSLNDITAKERFSPLTTNLINLLAENGRLSNTQGVVSAFSTMMSVHRGEVPCTVTSASPLEEATLSELKTVLKSFLSQGQVLKLEAKTDPSILGGMIVRIGEKYVDMSVKTKIQKLGRAMREIV
As a reminder, the Kd is the concentration at which binding is half-saturated. Read a low Kd as tighter binding. For B1, binding was put at a Kd of 69.8 µM.

(Values after article PMC9751095 (2022).)
